10 molecules from US20230416371A1 (Chugai, published 2023) can be followed below.

The term Kd denotes the equilibrium constant for the complex coming apart.

Assay [1] deals with T1, human FcγRIIa H (allotype H131) extracellular domain (human, UniProt P12318 34-217).
T1 construct: extracellular domain; also called hFcγRIIaH
T1 sequence (looked up): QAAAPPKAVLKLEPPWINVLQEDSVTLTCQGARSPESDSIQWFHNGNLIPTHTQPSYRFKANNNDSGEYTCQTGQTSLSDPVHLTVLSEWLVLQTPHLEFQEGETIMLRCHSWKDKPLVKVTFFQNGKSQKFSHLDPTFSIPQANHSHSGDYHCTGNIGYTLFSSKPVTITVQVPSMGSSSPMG
In words: SPR Biacore 8K+; KD for FcγRIIb divided by KD for this FcγR. Here is the method:
(§1) The extracellular domains of FcγRs were produced by the method described in WO2014104165. The interaction between the produced antibodies and human FcγRs was analyzed using Biacore 8K+by the method below. For the running buffer, 50 mM Na-Phosphate, 150 mM NaCl, and 0.05% Tween20 (pH 7.4) was used, and measurement was performed at 25° C. The sensor chip used was a Series S SA chip (GE Healthcare) onto which CaptureSelect Human Fab-kappa Kinetics Biotin Conjugate (Thermo Fisher Scientific) was immobilized. An antibody of interest was captured onto this chip, and each FcγR diluted with the running buffer was allowed to interact with it. The chip was regenerated using 10 mM Glycine-HCl (pH 1.5), and repeatedly used to capture antibodies and perform measurement. The dissociation constants KD (mol/L) of each antibody for FcγRs were calculated using Biacore Insight Evaluation Software, with a steady state affinity model for the dissociation constant for FcγRIIb and a 1:1 Langmuir binding model for the dissociation constants for the other FcγRs (Table 2).
A general note: In SPR one partner is held on a chip, and binding of the other changes the refractive index at the surface.

Assay [2] addresses T2, human FcγRIIIa V (allotype V158) extracellular domain (human, UniProt P08637 17-208).
T2 construct: extracellular domain; also called hFcγRIIIaV
As to the kind of experiment: SPR Biacore 8K+; KD of G1d divided by KD of this antibody. Here is the method: as §1

Assay [3] has as its target T3, human FcγRIIIa F (allotype F158) extracellular domain (human, UniProt P08637 17-208).
T3 construct: extracellular domain; also called hFcγRIIIaF
In words: SPR Biacore 8K+, 25 C, antibody captured, FcγR as analyte, 1:1 Langmuir model. On the procedure:
as §1

Assay [4] addresses T3, human FcγRIIIa F (allotype F158) …. As to the kind of experiment: SPR Biacore 8K+; KD of G1d divided by KD of this antibody. On the procedure:
as §1

The target of assay [5] is T4, human FcγRIIb extracellular domain (human, UniProt P31994 43-217).
T4 construct: extracellular domain; also called hFcγRIIb
T4 sequence (looked up): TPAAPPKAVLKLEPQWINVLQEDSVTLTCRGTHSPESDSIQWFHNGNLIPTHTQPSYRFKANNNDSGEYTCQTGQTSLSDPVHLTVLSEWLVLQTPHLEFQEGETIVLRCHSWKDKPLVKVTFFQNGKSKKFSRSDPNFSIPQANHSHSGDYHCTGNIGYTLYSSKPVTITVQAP
As to the kind of experiment: SPR Biacore 8K+, 25 C, antibody captured, FcγR as analyte, steady state affinity model. On the procedure: as §1

The target of assay [6] is T3, human FcγRIIIa F (allotype F158) …. As to the kind of experiment: SPR Biacore 8K+; KD for FcγRIIb divided by KD for this FcγR. Here is the method:
as §1

Assay [7] concerns the target T1, human FcγRIIa H (allotype H131) …. In words: SPR Biacore 8K+, 25 C, antibody captured, FcγR as analyte, 1:1 Langmuir model. On the procedure:
as §1

Assay [8] has as its target T4, human FcγRIIb extracellular domain. In words: SPR Biacore 8K+; KD of G1d divided by KD of this antibody. Here is the method:
as §1

Assay [9] deals with T1, human FcγRIIa H (allotype H131) …. Described as above. Here is the method: as §1
Assay [10] has as its target hFcγRIIIaV on hFcγRIIIaV-expressing Jurkat cells (human, UniProt P08637 17-254). As to the kind of experiment: cell-based or functional assay.
The target of assay [11] is T2, human FcγRIIIa V (allotype V158) …. As to the kind of experiment: SPR Biacore 8K+, 25 C, antibody captured, FcγR as analyte, 1:1 Langmuir model. On the procedure: as §1

Residue numbers refer to the chain shown, from its start. Numbers in names are those of the source.

T3 sequence (P08637 17-208): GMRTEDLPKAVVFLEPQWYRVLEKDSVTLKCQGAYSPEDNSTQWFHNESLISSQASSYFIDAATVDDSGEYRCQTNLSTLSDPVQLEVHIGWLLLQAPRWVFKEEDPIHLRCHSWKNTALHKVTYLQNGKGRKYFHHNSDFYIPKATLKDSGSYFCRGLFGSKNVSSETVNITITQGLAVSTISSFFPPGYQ
T2 sequence (P08637 17-208 F176V): as the sequence (P08637 17-208) above, with F160V counted along it
Sequence of hFcγRIIIaV on hFcγRIIIaV-expressing Jurkat cells (P08637 17-254, form in doubt): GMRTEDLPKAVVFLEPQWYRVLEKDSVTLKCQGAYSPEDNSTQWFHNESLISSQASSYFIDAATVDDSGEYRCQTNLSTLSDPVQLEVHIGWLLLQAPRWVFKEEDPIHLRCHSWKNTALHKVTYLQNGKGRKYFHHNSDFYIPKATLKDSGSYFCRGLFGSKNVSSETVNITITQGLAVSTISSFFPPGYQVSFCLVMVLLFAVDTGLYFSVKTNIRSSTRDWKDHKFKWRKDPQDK

B1: EGL-G1d (H240-G1d/L73-k0) (antibody, human IgG1, kappa)
heavy: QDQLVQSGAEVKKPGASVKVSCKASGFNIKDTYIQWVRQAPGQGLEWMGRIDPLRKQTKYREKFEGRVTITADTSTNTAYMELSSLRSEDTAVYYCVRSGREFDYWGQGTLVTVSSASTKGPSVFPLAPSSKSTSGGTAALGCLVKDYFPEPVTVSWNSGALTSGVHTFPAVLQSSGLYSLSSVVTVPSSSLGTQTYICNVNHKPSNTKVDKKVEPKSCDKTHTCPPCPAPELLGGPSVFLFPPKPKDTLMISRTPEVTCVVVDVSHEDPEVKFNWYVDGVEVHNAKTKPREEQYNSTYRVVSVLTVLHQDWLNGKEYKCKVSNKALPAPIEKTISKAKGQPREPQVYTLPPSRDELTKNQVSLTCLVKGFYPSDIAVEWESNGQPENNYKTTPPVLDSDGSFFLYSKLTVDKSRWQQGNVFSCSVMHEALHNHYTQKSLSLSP
light: DIQMTQSPSSLSASVGDRVTITCRASQDIHKYIAWYQQKPGQAPRLLIQYTSTLQPGVPSRFSGSGSGTDYTFTISSLQPEDIATYYCLQYEQLRTFGGGTKVEIKRTVAAPSVFIFPPSDEQLKSGTASVVCLLNNFYPREAKVQWKVDNALQSGNSQESVTEQDSKDSTYSLSSTLTLSKADYEKHKVYACEVTHQGLSSPVTKSFNRGEC
notes: Anti-human Epiregulin antibody with human IgG1 constant region G1d (C-terminal Lys and Gly deleted); parent of all Fc variants; also called H240-Gld/L73-k0; anti-hEREG control antibody
On to B1, for which, in assay [1], the “A/I ratio (KD for FcγRIIb divided by KD for each FcγR)” value stood at 6.9.

B2: EGL-SDALIE (H240-Kn032/L73-k0//H240-H1032/L73-k0) (antibody, human IgG1, kappa)
heavy 1: QDQLVQSGAEVKKPGASVKVSCKASGFNIKDTYIQWVRQAPGQGLEWMGRIDPLRKQTKYREKFEGRVTITADTSTNTAYMELSSLRSEDTAVYYCVRSGREFDYWGQGTLVTVSSASTKGPSVFPLAPSSKSTSGGTAALGCLVKDYFPEPVTVSWNSGALTSGVHTFPAVLQSSGLYSLSSVVTVPSSSLGTQTYICNVNHKPSNTKVDKKVEPKSCDKTHTCPPCPAPELLGGPDVFLFPPKPKDTLMISRTPEVTCVVVDVSHEDPEVKFNWYVDGVEVHNAKTKPREEQYNSTYRVVSVLTVLHQDWLNGKEYKCKVSNKALPLPEEKTISKAKGQPREPQVCTLPPSRDELTKNQVSLWCLVKGFYPSDIAVEWESNGQPENNYKTTPPVLDSDGSFFLYSKLTVDKSRWQQGNVFSCSVMHEALHNHYTQKSLSLSP
heavy 2: B2 heavy 1 with C348Y, D355C, W365S, L367A, Y406V
light: B1 light
notes: Anti-human Epiregulin IgG1 with S239D/A330L/I332E in both CH2 domains and knobs-into-holes in CH3
As for B2, the “Relative value to KD between G1d and hFcγRs” value (shortened to “Relative value”) in assay [2] came to 36.6 times. Further, the Kd in assay [3] was determined as 26.5 nM.

B3: EGL-ART10 (H240-Kn494/L73-k0//H240-HI514/L73-k0) (antibody, human IgG1, kappa)
heavy 1: B2 heavy 1 with L233F, L234Q, G235W, D238M, T249V, H267D, D269E, S297A, T306P, L329A
heavy 2: QDQLVQSGAEVKKPGASVKVSCKASGFNIKDTYIQWVRQAPGQGLEWMGRIDPLRKQTKYREKFEGRVTITADTSTNTAYMELSSLRSEDTAVYYCVRSGREFDYWGQGTLVTVSSASTKGPSVFPLAPSSKSTSGGTAALGCLVKDYFPEPVTVSWNSGALTSGVHTFPAVLQSSGLYSLSSVVTVPSSSLGTQTYICNVNHKPSNTKVDKKVEPKSCDKTHTCPPCPAPELLGGPSVFLFPPKPKDVLMISRTPEVTCVVVDVSHEEPEVKFNWYVDGVEVHNAKTKPREEQYNATYRVVSVLPVLHQDWLNGKEYKCKVSNDALPAPEEETISKAKGQPREPQVYTLPPSRCELTKNQVSLSCAVKGFYPSDIAVEWESNGQPENNYKTTPPVLDSDGSFFLVSKLTVDKSRWQQGNVFSCSVMHEALHNHYTQKSLSLSP
light: B1 light
notes: Anti-human Epiregulin IgG1 with heterodimeric (knobs-into-holes) Fc variant
In the case of B3, in assay [4], the “Relative value” value was found to be 1270 times.

B4: EGL-ART1 (H240-Kn125/L73-k0//H240-H1076/L73-k0) (antibody, human IgG1, kappa)
heavy 1: B2 heavy 1 with L233Y, L234Q, G235W, D238M, H267D, D269E, S297A, L329A, E331I
heavy 2: B3 heavy 2 with V249T, A297S, P306T, A329M, E331I
light: B1 light
notes: Anti-human Epiregulin IgG1 with heterodimeric (knobs-into-holes) Fc variant; also called Kn125/H1076
Take B4: in assay [2], the “Relative value” value amounted to 323 times.

B5: EGL-ART8 (H240-Kn461/L73-k0//H240-HI443/L73-k0) (antibody, human IgG1, kappa)
heavy 1: QDQLVQSGAEVKKPGASVKVSCKASGFNIKDTYIQWVRQAPGQGLEWMGRIDPLRKQTKYREKFEGRVTITADTSTNTAYMELSSLRSEDTAVYYCVRSGREFDYWGQGTLVTVSSASTKGPSVFPLAPSSKSTSGGTAALGCLVKDYFPEPVTVSWNSGALTSGVHTFPAVLQSSGLYSLSSVVTVPSSSLGTQTYICNVNHKPSNTKVDKKVEPKSCDKTHTCPPCPAPEFQWGPMVFLFPPKPKDVLMISRTPEVTCVVVDVSDEEPEVKFNWYVDGVEVHNAKTKPREEQYNATYRVVSVLPVLHQDWLNGKEYKCKVSNDALPAPEEKTISKAKGQPREPQVCTLPPSRDELTKNQVSLWCLVKGFYPSDIAVEWESNGQPENNYKTTPPVLDSDGSFFLYSKLTVDKSRWQQGNVFSCSVMHEALHNHYTQKSLSLSP
heavy 2: B3 heavy 2 with G235A
light: B1 light
notes: as for B3
On to B5, for which the “Relative value” value in assay [2] came to 685 times.

B6: EGL-GASDIE (H240-Kn037/L73-k0//H240-H1036/L73-k0) (antibody, human IgG1, kappa)
heavy 1: B2 heavy 1 with G235A, L329A
heavy 2: B2 heavy 1 with G235A, L329A, C348Y, D355C, W365S, L367A, Y406V
light: B1 light
notes: Anti-human Epiregulin IgG1 with G236A/S239D/I332E in both CH2 domains and knobs-into-holes in CH3
In turn, B6 gave a Kd in assay [5] of 12.5 nM.

B7: EGL-ART5 (H240-Kn462/L73-k0//H240-HI441/L73-k0) (antibody, human IgG1, kappa)
heavy 1: B5 heavy 1 with E331I
heavy 2: B3 heavy 2 with G235A, E331I
light: B1 light
notes: as for B3
For the molecule B7, the “A/I ratio (KD for FcγRIIb divided by KD for each FcγR)” value in assay [6] worked out at 387.

B8: EGL-GASDALIE (H240-GASDALIE/L73-k0) (antibody, human IgG1, kappa)
heavy: B2 heavy 1 with G235A, C348Y, W365T
light: B1 light
notes: Anti-human Epiregulin IgG1 with symmetric G236A/S239D/A330L/I332E
B8 came in with a Kd in assay [7] of 152 nM.

B9: EGL-ART2 (H240-Kn120/L73-k0//H240-H1068/L73-k0) (antibody, human IgG1, kappa)
heavy 1: B5 heavy 1 with F233Y, Q234Y, V249T, E269D, P306T, D325K, A326D, E331I
heavy 2: B3 heavy 2 with V249T, A297S, P306T, A329K, E331I
light: B1 light
notes: Anti-human Epiregulin IgG1 with heterodimeric (knobs-into-holes) Fc variant; also called Kn120/H1068
B9: the “A/I ratio (KD for FcγRIIb divided by KD for each FcγR)” value in [6] amounted to 58.4.

B10: EGL-afucosyl (H240-G1d/L73-k_glycomab) (antibody)
heavy: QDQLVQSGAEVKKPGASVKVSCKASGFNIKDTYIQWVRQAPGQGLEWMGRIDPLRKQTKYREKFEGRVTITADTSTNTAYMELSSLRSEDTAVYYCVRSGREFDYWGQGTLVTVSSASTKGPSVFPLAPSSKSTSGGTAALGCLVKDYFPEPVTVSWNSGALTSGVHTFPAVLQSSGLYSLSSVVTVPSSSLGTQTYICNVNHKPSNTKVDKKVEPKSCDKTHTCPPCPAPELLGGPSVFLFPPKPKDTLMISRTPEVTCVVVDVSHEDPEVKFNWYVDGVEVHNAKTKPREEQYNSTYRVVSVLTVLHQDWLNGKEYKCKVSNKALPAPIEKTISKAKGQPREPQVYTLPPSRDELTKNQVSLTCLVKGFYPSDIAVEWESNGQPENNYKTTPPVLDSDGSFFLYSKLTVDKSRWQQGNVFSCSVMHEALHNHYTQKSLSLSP
VL: DIQMTQSPSSLSASVGDRVTITCRASQDIHKYIAWYQQKPGQAPRLLIQYTSTLQPGVPSRFSGSGSGTDYTFTISSLQPEDIATYYCLQYEQLRTFGGGTKVEIK
modifications: afucosylated (fucose-deficient sugar chain) ; Afucosylated (fucose-deficient) N-glycan at Asn297 (EU) of the heavy chain; the letters cannot carry it.
notes: Same heavy chain as EGL-G1d, produced in cells that give fucose-deficient antibodies; also called afucosylated antibody
For the molecule B10, the figures for the Kd in [5] and in [11] were 5850 nM and 18 nM, respectively. Also, the “Relative value” value in assay [8] stood at 1.8 times; in assay [9] it was 1.1 times. Moreover, the “EC50 value of hFcγRIIIaV-mediated reporter gene induction activity” value in assay [10] is 5.16 ng/mL.
